Measurements published in patent US10260068B2, “Prophylactic agent and therapeutic agent for fibrodysplasia ossificans progressiva” (Sumitomo Dainippon Pharma Co., Ltd., priority 2014, dated 2019).

T1: FOP patient-derived ACVR1 (Homo sapiens, UniProt Q04771, R206H)
T1 construct: The patient cells were confirmed to be cells having a typical FOP-associated mutation in the ACVR1 gene; endogenous in cells; host or cells: mesenchymal stem cell-like cells differentiated from an FOP patient-derived iPS cell line
T1 sequence (Q04771 21-509 R206H): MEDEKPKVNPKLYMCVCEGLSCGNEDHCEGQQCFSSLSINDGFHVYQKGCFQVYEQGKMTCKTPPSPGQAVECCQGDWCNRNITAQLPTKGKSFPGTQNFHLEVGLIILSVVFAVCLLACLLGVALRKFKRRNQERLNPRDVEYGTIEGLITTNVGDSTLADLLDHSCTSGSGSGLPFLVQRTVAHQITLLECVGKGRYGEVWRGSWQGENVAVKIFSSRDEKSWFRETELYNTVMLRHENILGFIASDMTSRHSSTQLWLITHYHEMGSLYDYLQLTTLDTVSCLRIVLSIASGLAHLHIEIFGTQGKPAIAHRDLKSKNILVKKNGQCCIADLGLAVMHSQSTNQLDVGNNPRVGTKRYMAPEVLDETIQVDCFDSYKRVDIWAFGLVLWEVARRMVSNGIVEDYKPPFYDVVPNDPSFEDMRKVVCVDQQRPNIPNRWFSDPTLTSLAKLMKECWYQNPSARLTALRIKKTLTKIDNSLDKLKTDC


Experiments:
[1] = molecular target: T1, FOP patient-derived ACVR1; test: Luciferase reporter (BMP responsive sequence) transcription activity via ACVR1 in FOP patient derived cells; format: cell-based; conditions: ligand 1, 10, 100 ng/mL, 16 hours, significant at 10 and 100 ng/mL vs untreated group
Description: Following the method of Yamanaka et al. (Cell, 2007, 131 (5), […]), FOP patient-derived iPS cells (hereunder also referred to as “patient-derived iPS cell line”) were established. The patient cells were confirmed to be cells having a typical FOP-associated mutation in the ACVR1 gene. The mutation is a substitution of the 206th arginine residue of the amino acid sequence of ACVR1 (the amino acid sequence listed as SEQ ID NO: 10) with a histidine residue. Next, for use as a control, an iPS cell line with the ACVR1 gene mutation repaired to the normal type (wild type) by gene repair by a BAC knockin vector (hereunder also referred to as “gene-corrected iPS cell clone” or “gene-rescued iPS cell clone”) was established.
The patient-derived iPS cell line and gene-corrected iPS cell line were cultured on the matrix of a Matrigel coated plate (trade name: Growth Factor Reduced (GFR)BD Matrigel® by Becton & Dickinson), using mTeSR1 (Stem Cell Technologies) for 2 days under feeder-free conditions. Next, using serum-free medium [F12 Nutrient Mixture (product of Gibco)/Iscove's Modified Dulbecco's Medium (IMDM) (product of Sigma-Aldrich Japan, KK.)/0.5% bovine serum albumin (BSA) (product of Sigma-Aldrich Japan, KK.)/1% Chemically Defined Lipid (CD-Lipid) (product of Gibco, trade name: Chemically Defined Lipid Concentrate)/15 μg/mL apotransferrin (product of Sigma-Aldrich Japan, KK., trade name: apo-Transferrin human)/7 μg/mL insulin (product of Wako Pure Chemical Industries, Ltd., trade name: Insulin, Human, recombinant)/0.45 mM 1-Thioglycerol (product of Sigma-Aldrich Japan, KK.)] with addition of 10 μM SB-431542 (product of Selleck Chemicals) and 1 μM CHIR99021 (product of Wako Pure Chemical Industries, Ltd.), the patient-derived iPS cell line and gene-corrected iPS cell line were further cultured for 1 week under feeder-free conditions for differentiation to neural crest cells. […]
After mixing Firefly luciferase reporter plasmid having the BMP responsive sequence in the promoter region (J. Biol. Chem., 2002, 277(7), 4883-4891) and a plasmid having a nucleic acid sequence coding for Renilla luciferase downstream from CMV promoter, as an internal standard (product of Promega Corp., trade name: phRL-CMV Vector), FuGene® HD (Promega Corp.) was used for transfection into the mesenchymal stem cell-like cells. […] Next, the luciferase activity was measured according to the protocol provided with a Dual-Glo Luciferase Assay System (product of Promega Corp.). The luminescence was detected using an EnVision Multilabel Counter (product of Perkin-Elmer). […]

[2] = test system: FOP patient derived cells; test: Differentiation to chondrocytes (Alcian blue, sulfated glycosaminoglycan assay) of FOP patient derived cells; format: cell-based, human; conditions: for cartilage induction (sulfated glycosaminoglycan assay): 100 ng/mL activin A, vs untreated group
Method: Mesenchymal stem cell-like cells from a patient iPS cell line and a gene-corrected iPS cell clone were each prepared by the same method as Example 1. The mesenchymal stem cell-like cells were cultured for 6 days under the medium conditions used in the method of Umeda et al. (Sci. Rep., 2012, 2, 455), for differentiation to chondrocytes. During differentiation, 100 ng/mL of human activin A, 100 ng/mL of human BMP-7 or 1 ng/mL of human TGF-β3 (product of R&D Systems, Inc., trade name: Recombinant Human TGF-beta 3) was added and the effect of each factor on differentiation to chondrocytes was examined. The extent of differentiation to chondrocytes was measured with Alcian blue dye and a sulfated glycosaminoglycan assay kit (product of Biocolor, Ltd., trade name: Blyscan Glycosaminoglycan Assay Kit). In FIG. 4, the bar graph indicates the mean values for each treated group, and the error bars represent S.D.

[3] = FOP patient derived cells, 100 ng/mL BMP-7 or 1 ng/mL TGF-β3, 6 days

Row | Molecule | transcription activity via ACVR1 (firefly/Renilla luciferase activity, BMP responsive sequence) [1] | sulfated glycosaminoglycan production in FOP patient derived cells compared to gene-corrected cells ([2]; 100 ng/mL, 6 days) [fold] | cartilage induction (sulfated glycosaminoglycan assay) [2, 3] | differentiation to chondrocytes (Alcian blue staining) ([2]; FOP patient derived cells, 100 ng/mL, 6 days) | cartilage induction effect compared to the effect exhibited by activin A on FOP patient derived cells ([2]; 100 ng/mL BMP-7 or 1 ng/mL TGF-β3, 6 days)
1 | human activin A: Recombinant Human/Mouse/Rat Activin A (R&D Systems); homodimer of inhibin βA chains | significantly increased | 4 | very notably enhances | notably enhances | 
2 | BMP-7: Recombinant Human BMP-7 (R&D Systems); cytokine of the BMP family (protein) STGSKQRSQNRSKTPKNQEALRMANVAENSSSDQRQACKKHELYVSFRDLGWQDWIIAPEGYAAYYCEGECAFPLNSYMNATNHAIVQTLVHFINPETVPKPCCAPTQLNAISVLYFDDSSNVILKKYRNMVVRACGCH | increased in a concentration-dependent manner |  | significantly enhanced |  | weaker
